In US6156727A, “Anti-atherosclerotic peptides and a transgenic mouse model of antherosclerosis” (UAB Research Foundation, priority 1997, dated 2000):
Several values for one entry are separate records, joined by “and”; a condition that tells them apart may be missing. Identical values can stand only once. Like-named read-outs stand apart in the source and are kept apart here. No end group written: not given here.

Columns and labels:
[1] = tested on: spontaneous lesions in apoE-knockout mice; test: IP administration of modified 18A peptide to apoE-knockout mice on normal diet; format: in vivo; conditions: for aortal lesions: IP administration, apoE-knockout mice
Protocol: Similar experiments were completed in apoE-knockout animals. The peptide used was a modified 18A of the present invention with the sequence:
This peptide was administered to animals on a normal diet, to determine if the intraperitoneal administration of this peptide would inhibit lesions that these animals produce spontaneously, even without high fat diet administration. The lesions in this case is different than that produced after sixteen weeks of high fat diet administration in 57BL6/J mice.

[2] = tested on: plasma cholesterol in B16/SJL mice; test: Effect of peptides on total cholesterol, high fat diet administered to B16/SJL mice; format: in vivo
Protocol: Peptide injections (50 μg/animal/day for 16 weeks).

[3] = IP administration of radiolabelled 18A-Pro-18A and human apo A-I in mice, plasma radioactivity; format: in vivo, 57BL6/J mice; conditions: for amount of the injected dosage present in the blood: 4 or 5 hours following IP injection, based on specific activity; for Total plasma cpm as a percent of the injected cpm: IP, radiolabelled, 4 or 5 hours (respectively) after injection, plasma volume assumed 4.2% of body weight; for presence of the radiolabel in isolated lipoprotein fractions (FPLC): after IP injection; for form of radioactivity in the plasma (TCA precipitation and FPLC analysis): early time points (up to 5 hours)
Protocol: Since the peptide administration experiments involves intraperitoneal administration of peptide, the effect of administration of radiolabelled peptide and human apo A-I was compared in mice. Briefly, approximately 200,000 cpm of either the peptide (4.4 μg) or human apo A-I (3.0 μg) were administered intraperitoneally into 57BL6/J mice and blood samples were taken by retro-orbital bleeding from anesthetized animals. The final time point was taken from the axilla of anesthetized animals. Radioactivity was measured in plasma sample, and was calculated as total plasma cpm, assuming plasma volume as 4.2% of the body weight.
Based on the specific activity of the radiolabelled materials, approximately […] of the injected dosage was present in the blood after 4 or 5 hours following the injection. […] It should be noted that the major lipoprotein in 57BL6/J mice is HDL.
Thus, intraperitoneal administration allows for the peptide or human apoA-I to be released into plasma gradually. Intraperitoneal administration of the peptide is therefore feasible

[4] = rat, in vivo
cholesterol-loaded cells = test: Efflux of phospholipid and cellular cholesterol from cholesterol-loaded cells; format: cell-based
From the text: 4) The amphipathic helical peptide 18A-Pro-18A mimics HDL in clearing cellular cholesterol. The removal of cholesterol from peripheral cells by HDL is thought to initiate the process of reverse cholesterol transport. HDL is capable of stimulating the net release of cholesterol from cells. This process thus inhibits the formation of foam cells, the hallmark of atherosclerosis.

[5] = Stability of peptide lipid complex; format: physicochemical; conditions: compared to 18A-Ala-18A and 18A-18A
From the text: 1. The tandem repeating class A amphipathic helix linked by a proline forms an optimal arrangement for lipid association.
(§1) 2. The amphipathic helical peptide 18A-Pro-18A is the closest mimic of human apoA-I as a bilayer stabilizer. Bilayer stabilizers increase the transition temperature of DOPE whereas destabilizing molecules decrease the transition temperature. Such a destabilization can cause the inverted phase lipids (or hexagonal phase). Formation of this by the lytic peptide can be inhibited by human apoA-I or class A peptides.

[6] = tested on: diet-induced lipid accumulation in C57 BL6/J mice; test: IP administration of peptide for sixteen weeks to high fat diet administered C57BL 6/J mice (aortal histology, total cholesterol, mortality); format: in vivo
Protocol: C57BL mice were administered a high cholesterol diet (modified Thomas Hartcroft) and were divided into two groups. Group I received intraperitoneal administration of saline each day for 16 weeks. Group II received intraperitoneal administration of the peptide solution (μg/mice/day) for 16 weeks. At the end of the experiment, mice were sacrificed and aortas were harvested, cross-sectioned and stained with Oil Red O. FIGS. 1A-1F show the cross sections of the aortas from animals 1 and 2.
A dosage of peptide to be injected was selected based on the in vivo studies conducted using 18A to inhibit the LPS-induced toxicity in mice (Levine, et al., PNAS, 1993, 90:12040-12044). In these experiments, […] of the peptide 18A was used per mouse to inhibit endotoxin-induced death of mice. Because of the solubility of the peptide 37pA, and since it was desirable to maintain the same volume used by Levine et al, […] of peptide per mouse per day was injected.
Peptide 18A-Pro-18A dissolved in sterile saline was administered IP everyday for sixteen weeks 11 animals on high fat diet. Control animals on high fat diet were administered saline for sixteen weeks. At the end of sixteen weeks, animals were sacrificed and histology of hearts were done. The mortality in both the groups were similar (only three in each groups) indicating no toxicity due to peptide 18A-Pro-18A administration.

[7] = target: T1, HDL receptor on rat adrenal cells (Rattus norvegicus, UniProt P97943); test: Competition with HDL for binding to rat adrenal cells
T1 construct: endogenous in cells; host or cells: rat adrenal cells
T1 sequence (P97943 1-509): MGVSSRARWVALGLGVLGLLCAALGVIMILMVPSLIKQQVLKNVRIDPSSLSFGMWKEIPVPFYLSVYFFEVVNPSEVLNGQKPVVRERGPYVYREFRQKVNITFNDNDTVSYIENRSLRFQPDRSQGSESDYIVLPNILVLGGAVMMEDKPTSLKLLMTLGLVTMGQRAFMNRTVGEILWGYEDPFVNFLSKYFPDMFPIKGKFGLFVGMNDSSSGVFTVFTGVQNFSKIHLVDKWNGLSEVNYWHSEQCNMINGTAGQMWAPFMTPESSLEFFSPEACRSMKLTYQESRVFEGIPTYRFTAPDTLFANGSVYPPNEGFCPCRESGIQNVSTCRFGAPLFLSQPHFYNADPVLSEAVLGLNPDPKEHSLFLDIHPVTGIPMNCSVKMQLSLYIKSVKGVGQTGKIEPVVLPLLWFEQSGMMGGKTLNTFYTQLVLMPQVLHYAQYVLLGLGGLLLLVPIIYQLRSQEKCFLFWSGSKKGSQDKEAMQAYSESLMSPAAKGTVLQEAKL
From the text: 5) The amphipathic helical peptide 18A-Pro-18A competes with HDL for binding to rat adrenal cells. Recently, it has been shown that HDL delivers cholesterol to the cells through class B scavenger receptor SRBI. This receptor binds HDL with high affinity and is primarily expressed in the liver and in nonplacental steroidogenic tissues.

[8] = Bilayer stabilization (transition temperature of DOPE); format: physicochemical
From the text: as §1

[9] = tested on: HIV-I Gp4l-induced cell fusion; test: HIV-I Gp41-induced cell fusion; format: cell-based
[10] = BSA-induced lysis of fatty acid-containing vesicles
neutrophil activation = test: Neutrophil activation; format: cell-based
[11] = Turnover (clearance curves) in rats; conditions: 18A-Pro-18A versus human apo A-I
[12] = tested on: human placental lactogen synthesis; test: Stimulation of human placental lactogen synthesis; format: cell-based
[13] = tested on: diet administered atherosclerosis in peptide transgenic mice; test: In vitro fertilized peptide-transgenic mice on high fat diet for 16 weeks (plasma peptide, cholesterol, aortic cross-section); format: in vivo; conditions: transgenic IVF mice, retroorbital bleed, Western analysis; some of the mice
From the text: The peptide gene was then cloned into the MunI site of the apoE-promoter that is specific for expression of the peptide/protein in the liver. SalI-Spel fragment of the apoE promoter to which the peptide gene was subcloned was microinjected into mouse oocytes to produce transgenic mice. […] Further transgenic mice were generated from these two founders and analysed for the presence of peptide gene.
This produced a number of animals with the peptide gene present in different amounts. Western analysis using the antibody produced for the chemically synthesized peptide indicated the presence of peptide in different amounts (FIG. 4).
The animals were then administered TeckLad diet that is known to produce foam cell lesions in 57BL6/J mice when administered for sixteen weeks. At the end of sixteenth week, mice were sacrificed, plasma was collected and the hearts were harvested. The aortal cross-sections were stained with Oil Red O that stains lipid laden fatty streaks. The plasma samples were subjected to lipoprotein analysis. The results of plasma analysis indicated clearly that the profiles were different from each other and some of the profiles looked very similar to the control mice on the normal diet, with the cholesterol values around ≤100 mg/dl.
Blood from the in vitro fertilized animals were obtained from the retroorbital bleed and red cells were separated by centrifugation. […]

Ac-DWLKAFYDKVFEKFKEFF-NH2 [5F, Ac-Asp-Trp-Leu-Lys-Ala-Phe-Tyr-Asp-Lys-Val-Phe-Glu-Lys-Phe-Lys-Glu-Phe-Phe-NH2]
aortal lesions ([1]; listed as SEQ No. 2): effective
aortal lesions ([1]; listed as modified 18A): virtually no lesion
VLDL-density particles in cholesterol profile compared to control animals ([1]; after sixteen weeks, IP, normal diet): decreased considerably
Total cholesterol ([2]; high fat diet, 50 μg/animal/day for 16 weeks, individual mice (Table III)): 156 and 161 and 182
levels of plasma cholesterol ([2]; peptide injections 50 μg/animal/day for 16 weeks): markedly decreases

human apo A-I: human apolipoprotein A-I, protein component of HDL, used as comparator
amount of the injected dosage present in the blood [3]: approximately 1 mg
Total plasma cpm as a percent of the injected cpm [3]: 32%
presence of the radiolabel in isolated lipoprotein fractions (FPLC) [3]: exclusively in HDL
form of radioactivity in the plasma (TCA precipitation and FPLC analysis) [3]: present in the intact peptide/protein
clearance curves [4]: virtually superimposable

DWLKAFYDKVAEKLKEAFPDWLKAFYDKVAEKLKEAF [18A-Pro-18A, class A amphipathic helical peptide 18A as head-to-tail dimer with a proline incorporated]
amount of the injected dosage present in the blood [3]: approximately 1 mg
Total plasma cpm as a percent of the injected cpm [3]: 25.5%
presence of the radiolabel in isolated lipoprotein fractions (FPLC) [3]: exclusively in HDL
form of radioactivity in the plasma (TCA precipitation and FPLC analysis) [3]: present in the intact peptide/protein
efflux of phospholipid and cellular cholesterol (cholesterol-loaded cells): effectively effluxes
stability of complex [5]: most stable complex
antibody to the peptide ([6]; IP every day for sixteen weeks): no antibody was detected
toxicity (mortality compared with saline group) ([6]; IP every day for sixteen weeks, high fat diet): no toxicity
foam cells in cross sections from the aorta ([6]; IP over 16 weeks, high fat diet, FIG. 1C): no foam cells can be seen
lipid accumulation in aortal cross sections compared to the control group ([6]; IP sixteen weeks, high fat diet, Oil Red O): less lipid accumulation
Total cholesterol ([6]; mice on high fat diet and peptide administered, individual mice (Table I)): 156 mg/dL and 161 mg/dL and 182 mg/dL
competition with HDL for binding [7]: competes
bilayer stabilizing property [8]: most bilayer stabilizing property
effectiveness in HIV-I Gp4l-induced cell fusion [9]: most effective peptide
effectiveness in BSA-induced lysis of fatty acid-containing vesicles [10]: most effective peptide
effectiveness in neutrophil activation (neutrophil activation): most effective peptide
clearance curves [11]: virtually superimposable
effectiveness in stimulating human placental lactogen synthesis [12]: most effective peptide

DEPDWLKAFYDKVAEKLKEAFPDWLKAFYDKVAEKLKEAF [Asp-Glu-Pro-18A-Pro-18A]
amount of peptide in the plasma [13]: approximately 20 μg/ml
